This passage reports Kd, Km and kcat results from PMC4744555, “Pi Release Limits the Intrinsic and RNA-Stimulated ATPase Cycles of DEAD-Box Protein 5 (Dbp5)” (Journal of Molecular Biology, 2016).

Data set [1] has as its target T1, Dbp5 (Saccharomyces cerevisiae, UniProt P20449).
T1 construct: full-length, N-terminal 6xHis tag, expressed in E. coli
T1 sequence (P20449 1-482): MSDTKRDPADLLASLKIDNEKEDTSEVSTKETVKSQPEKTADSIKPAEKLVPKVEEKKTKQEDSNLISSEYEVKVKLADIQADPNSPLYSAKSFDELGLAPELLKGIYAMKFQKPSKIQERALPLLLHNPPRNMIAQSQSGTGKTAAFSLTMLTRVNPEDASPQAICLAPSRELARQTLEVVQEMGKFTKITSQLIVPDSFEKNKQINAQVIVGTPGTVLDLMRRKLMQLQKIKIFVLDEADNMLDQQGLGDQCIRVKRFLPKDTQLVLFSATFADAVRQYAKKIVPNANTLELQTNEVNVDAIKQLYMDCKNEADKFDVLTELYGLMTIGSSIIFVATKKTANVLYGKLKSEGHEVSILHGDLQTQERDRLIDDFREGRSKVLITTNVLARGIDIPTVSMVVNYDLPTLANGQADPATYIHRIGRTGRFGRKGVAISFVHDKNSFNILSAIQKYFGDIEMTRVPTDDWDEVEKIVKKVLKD
The data set is described as follows: kinetic competition with mantADP, FRET stopped flow. It counts as binding. The settings on record: no RNA; 30 mM Hepes pH 7.5, 100 mM KCl, 2 mM MgCl2, 2 mM DTT, 25 °C. From the text: kinetic competition with mantADP, FRET stopped flow on Dbp5

The target in data set [2] is T1, Dbp5. The data set is described as follows: transient Pi release lag phase, phosphate binding protein (PiBiP), stopped flow. The settings on record: no RNA; 30 mM Hepes pH 7.5, 100 mM KCl, 2 mM MgCl2, 2 mM DTT, 25 °C; ATP dissociation constant from lag-phase dependence; also determined by mant-nucleotide competition. It counts as biochemical. From the text:
transient Pi release lag phase, phosphate binding protein (PiBiP), stopped flow on Dbp5

Data set [3] deals with T1, Dbp5. The data set is described as follows: FRET stopped flow, total fluorescence amplitude. It counts as binding. From the text: FRET stopped flow, total fluorescence amplitude on Dbp5
Substrate in data set [4]: Nc1ncnc2c1ncn2[C@@H]1O[C@H](COP(=O)(O)OP(=O)(O)OP(=O)(O)O)[C@@H](O)[C@H]1O
The data set is described as follows: NADH-coupled steady-state ATPase assay. It counts as biochemical, Saccharomyces cerevisiae. The settings on record: no RNA, 30 mM Hepes pH 7.5, 100 mM KCl, 2 mM MgCl2, 2 mM DTT, 25 °C. From the text:
(§1) NADH-coupled steady-state ATPase assay on Dbp5

Substrate in data set [5]: Nc1ncnc2c1ncn2[C@@H]1O[C@H](CO[P@](=O)(O)O[P@](=O)(O)O[P@@](=O)(O)S)[C@@H](O)[C@H]1O
The data set can be described thus: NADH-coupled steady-state ATPase assay. The settings on record: no RNA, 30 mM Hepes pH 7.5, 100 mM KCl, 2 mM MgCl2, 2 mM DTT, 25 °C. It counts as biochemical, Saccharomyces cerevisiae.
Source text: as §1

As usually defined, the Kd is the concentration at which binding is half-saturated. A low value points to a tighter complex. Turning to `Nc1ncnc2c1ncn2[C@@H]1O[C@H](COP(=O)(O)OP(=O)(O)O)[C@@H](O)[C@H]1O` [ADP], the equilibrium dissociation constant (Kd) on Dbp5 [1] worked out at 360 µM.

`Nc1ncnc2c1ncn2[C@@H]1O[C@H](COP(=O)(O)OP(=O)(O)OP(=O)(O)O)[C@@H](O)[C@H]1O` [ATP] gave a Kd on Dbp5 [2] of 4000 µM.

The molecule `CNc1ccccc1C(=O)O[C@H]1[C@@H](O)[C@H](n2cnc3c(N)ncnc32)O[C@@H]1CO[P@@](=O)(O)O[P@](=O)(O)OP(=O)(O)O` [mantATP] registered a Kd at Dbp5 [3] of 1 µM.

B1: Dbp5 (Saccharomyces cerevisiae S288C) (protein)
chain: T1 sequence (P20449 1-482)
notes: full-length, N-terminal 6xHis tag, expressed in E. coli
Consider B1, for which the Km in data set [4] is 1.7 (± 0.2) mM; in data set [5], 0.98 (± 0.06) mM. For the same molecule, the kcat is listed as 0.043 (± 0.001) s^− 1 in data set [4] and 0.036 (± 0.001) s^− 1 in data set [5].
